B2: Full length UL16 on transfected 293 EBNA cells (other)
chain: VDLGSKSSNSTCRLNVTELASIHPGETWTLHGMCISICYYENVTEDEIIGVAFTWQHNESVVDLWLYQNDTVIRNFSDITTNILQDGLKMRTVPVTKLYTSRMVTNLTVGRYDCLRCENGTTKIIERLYVRLGSLYPRPPGSGLAKHPSVSADEELSATLARDIVLVSAITLFFFLLALRIPQRLCQRLRIRLPHRYQRLRTED
notes: whole, on cells; also called UL16 FL

Experiment [1] has as its target B2. As to the kind of experiment: flow cytometry, transfected 293 EBNA cells, 2 µg Fc protein + goat anti-human IgG PE. A general note: Flow cytometry measures light scatter and fluorescence of single cells or particles in a stream.
The target of experiment [2] is T1, FLAG tagged Dap10 alone on transfected 293 EBNA cells (UniProt Q9UBK5 19-93).
T1 construct: whole, on cells
T1 sequence: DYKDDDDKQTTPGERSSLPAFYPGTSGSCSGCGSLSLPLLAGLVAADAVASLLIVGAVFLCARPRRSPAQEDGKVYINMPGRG
The description is as above.

Experiment [3] concerns the target T2, NKG2D alone on transfected 293 EBNA cells (UniProt P26718 1-216, limits assumed).
T2 construct: whole, on cells
T2 sequence (looked up): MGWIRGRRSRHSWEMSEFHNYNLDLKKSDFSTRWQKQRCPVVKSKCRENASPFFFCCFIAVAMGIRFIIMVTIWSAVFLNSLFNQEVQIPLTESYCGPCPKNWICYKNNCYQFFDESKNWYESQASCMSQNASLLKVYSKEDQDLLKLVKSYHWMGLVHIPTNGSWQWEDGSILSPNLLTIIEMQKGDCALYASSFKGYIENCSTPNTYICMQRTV
Described as above.

Experiment [4] addresses T3, NKG2D/Dap10 on transfected 293E cells (UniProt P26718 1-216; Q9UBK5 19-93).
T3 construct: whole, on cells; Co-expressed on 293 EBNA (293E) cells from the pDC409 vector; also called NKG2D+FLAG tagged Dap10
T3 sequence 1: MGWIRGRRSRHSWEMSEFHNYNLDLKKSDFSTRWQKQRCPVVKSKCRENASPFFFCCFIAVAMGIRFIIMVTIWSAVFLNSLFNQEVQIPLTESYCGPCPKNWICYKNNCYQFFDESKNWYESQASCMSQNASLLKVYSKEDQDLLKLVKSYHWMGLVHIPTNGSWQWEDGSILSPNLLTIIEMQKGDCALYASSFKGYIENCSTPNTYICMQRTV
T3 sequence 2: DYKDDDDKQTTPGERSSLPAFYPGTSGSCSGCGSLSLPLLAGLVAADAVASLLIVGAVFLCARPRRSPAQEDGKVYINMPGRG
Described as above.

Experiment [5] has as its target T3, NKG2D/Dap10 on transfected 293E cells. Nature of the experiment: flow cytometry; NKG2D/Dap10-transfected 293E cells preincubated with 25 µg ULBP1/LZ (competitor).
For experiment [6] the target is unchanged. As to the kind of experiment: flow cytometry; NKG2D/Dap10-transfected 293E cells preincubated with 25 µg hCD40L/LZ (control blocking protein).
Experiment [7] deals with B2. As to the kind of experiment: flow cytometry on 293 EBNA cells transfected with full length UL16.
The next experiment has as its target T4, MICA/Fc (UniProt Q29983 24-307).
T4 construct: not shown: Fc portion not described
T4 sequence (looked up): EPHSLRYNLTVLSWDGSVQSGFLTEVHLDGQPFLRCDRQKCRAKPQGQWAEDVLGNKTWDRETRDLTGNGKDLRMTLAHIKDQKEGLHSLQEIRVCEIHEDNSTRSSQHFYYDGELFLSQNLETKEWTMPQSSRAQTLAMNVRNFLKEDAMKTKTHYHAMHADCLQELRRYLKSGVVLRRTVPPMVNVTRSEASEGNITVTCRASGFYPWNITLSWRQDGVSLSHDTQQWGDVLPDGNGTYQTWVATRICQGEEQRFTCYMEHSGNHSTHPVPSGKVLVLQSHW
Described as above.

B1: ULBP3/Fc (Fc fusion)
chain: DAHSLWYNFTIIHLPRHGQQWCEVQSQVDQKNFLSYDCGSDKVLSMGHLEEQLYATDAWGKQLEMLREVGQRLRLELADTELEDFTPSGPLTLQVRMSCECEADGYIRGSWQFSFDGRKFLLFDSNNRKWTVVHAGARRMKEKWEKDSGLTTFFKMVSMRDCKSWLRDFLMHRKKRLEPTAPPTMAPG
notes: That entry lacks the first five residues of the leader and still holds the rest of the signal peptide and the GPI signal; not shown: Fc portion of ULBP3/Fc is not described
With B1, the “Mean Fluorescence Intensity (MFI)” value was found to be 11.9 MFI in experiment [1]; 14 MFI in experiment [2]; 9.55 MFI in experiment [3]; 102 MFI in experiment [4]; 13 MFI in experiment [5]; 267 MFI in experiment [6]. The binding result in experiment [7] was “no binding (tested: 2 µg)”.
In the case of B2, the binding result with MICA/Fc was “no binding (tested: 2 µg)”.
